# US20140087995A1 (published 2014)
# Numbered stars: 1 amine (or outer) side, 2 acyl side, 3 side chain; on linkers, the order of the positions; unused ones are H or OH. Bridge positions count the residues as written; N and C are the ends. Side chains are listed from the residue outwards. Ends that are not written are not given here. * marks the point of attachment. C20 diacid = O=C(O)CCCCCCCCCCCCCCCCCCC(=O)*; γGlu = O=C(O)[C@H](CCC(=O)[*:2])N[*:1]; AEEA = NCCOCCOCC(=O)O
# T1: human amylin 3(a) receptor (human calcitonin receptor co-expressed with RAMP-3) (human, UniProt P30988 25-474; O60896 24-148, limits assumed)
# T1 sequence (looked up) 1: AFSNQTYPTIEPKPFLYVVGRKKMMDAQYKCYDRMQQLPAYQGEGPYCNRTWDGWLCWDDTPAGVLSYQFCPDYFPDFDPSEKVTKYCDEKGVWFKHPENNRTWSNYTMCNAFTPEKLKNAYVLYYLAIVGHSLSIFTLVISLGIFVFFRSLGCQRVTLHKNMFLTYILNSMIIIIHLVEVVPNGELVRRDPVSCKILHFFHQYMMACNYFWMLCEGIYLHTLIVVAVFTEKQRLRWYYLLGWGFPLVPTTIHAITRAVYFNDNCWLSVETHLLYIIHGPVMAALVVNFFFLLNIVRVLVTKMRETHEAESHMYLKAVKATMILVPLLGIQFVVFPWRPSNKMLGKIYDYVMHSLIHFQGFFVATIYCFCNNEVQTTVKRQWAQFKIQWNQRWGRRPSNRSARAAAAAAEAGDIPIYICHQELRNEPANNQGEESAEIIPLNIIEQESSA
# T1 sequence (looked up) 2: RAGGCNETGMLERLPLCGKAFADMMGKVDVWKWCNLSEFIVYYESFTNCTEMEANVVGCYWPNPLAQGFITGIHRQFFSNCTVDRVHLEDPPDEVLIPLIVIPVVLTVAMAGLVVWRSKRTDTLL
# Molecular target: T1, human amylin 3(a) receptor (human …)
# Assay: cell-based or functional assay
Ratio hCT/hAmylin funct. (hCTR EC50 over hAmylin-R EC50),hAmylin-R funct. EC50 (pM),Binder
17,594,"K([AEEA-γGlu-C20 diacid])RCNTATCATQRLANFLRHSSPNFGAIPSSTNVGSHTY-NH2 (disulfide 3-8; N-terminus assumed; SMILES CC[C@H](C)[C@H](NC(=O)[C@H](C)NC(=O)CNC(=O)[C@H](Cc1ccccc1)NC(=O)[C@H](CC(N)=O)NC(=O)[C@@H]1CCCN1C(=O)[C@H](CO)NC(=O)[C@H](CO)NC(=O)[C@H](Cc1c[nH]cn1)NC(=O)[C@H](CCCNC(=N)N)NC(=O)[C@H](CC(C)C)NC(=O)[C@H](Cc1ccccc1)NC(=O)[C@H](CC(N)=O)NC(=O)[C@H](C)NC(=O)[C@H](CC(C)C)NC(=O)[C@H](CCCNC(=N)N)NC(=O)[C@H](CCC(N)=O)NC(=O)[C@@H](NC(=O)[C@H](C)NC(=O)[C@@H]1CSSC[C@H](NC(=O)[C@H](CCCNC(=N)N)NC(=O)[C@@H](N)CCCCNC(=O)COCCOCCNC(=O)CC[C@H](NC(=O)CCCCCCCCCCCCCCCCCCC(=O)O)C(=O)O)C(=O)N[C@@H](CC(N)=O)C(=O)N[C@@H]([C@@H](C)O)C(=O)N[C@@H](C)C(=O)N[C@@H]([C@@H](C)O)C(=O)N1)[C@@H](C)O)C(=O)N1CCC[C@H]1C(=O)N[C@@H](CO)C(=O)N[C@@H](CO)C(=O)N[C@H](C(=O)N[C@@H](CC(N)=O)C(=O)N[C@H](C(=O)NCC(=O)N[C@@H](CO)C(=O)N[C@@H](Cc1c[nH]cn1)C(=O)N[C@H](C(=O)N[C@@H](Cc1ccc(O)cc1)C(N)=O)[C@@H](C)O)C(C)C)[C@@H](C)O, 38 residues; also called compound 45)"
24,198,"K([γGlu-C20 diacid])RCNTATCATQRLANFLRHSSPNFGAIPSSTNVGSHTY-NH2 (disulfide 3-8; N-terminus assumed; SMILES CC[C@H](C)[C@H](NC(=O)[C@H](C)NC(=O)CNC(=O)[C@H](Cc1ccccc1)NC(=O)[C@H](CC(N)=O)NC(=O)[C@@H]1CCCN1C(=O)[C@H](CO)NC(=O)[C@H](CO)NC(=O)[C@H](Cc1c[nH]cn1)NC(=O)[C@H](CCCNC(=N)N)NC(=O)[C@H](CC(C)C)NC(=O)[C@H](Cc1ccccc1)NC(=O)[C@H](CC(N)=O)NC(=O)[C@H](C)NC(=O)[C@H](CC(C)C)NC(=O)[C@H](CCCNC(=N)N)NC(=O)[C@H](CCC(N)=O)NC(=O)[C@@H](NC(=O)[C@H](C)NC(=O)[C@@H]1CSSC[C@H](NC(=O)[C@H](CCCNC(=N)N)NC(=O)[C@@H](N)CCCCNC(=O)CC[C@H](NC(=O)CCCCCCCCCCCCCCCCCCC(=O)O)C(=O)O)C(=O)N[C@@H](CC(N)=O)C(=O)N[C@@H]([C@@H](C)O)C(=O)N[C@@H](C)C(=O)N[C@@H]([C@@H](C)O)C(=O)N1)[C@@H](C)O)C(=O)N1CCC[C@H]1C(=O)N[C@@H](CO)C(=O)N[C@@H](CO)C(=O)N[C@H](C(=O)N[C@@H](CC(N)=O)C(=O)N[C@H](C(=O)NCC(=O)N[C@@H](CO)C(=O)N[C@@H](Cc1c[nH]cn1)C(=O)N[C@H](C(=O)N[C@@H](Cc1ccc(O)cc1)C(N)=O)[C@@H](C)O)C(C)C)[C@@H](C)O, 38 residues; also called compound 44)"
17,116,"K([γGlu-C20 diacid])CNTATCATQRLANFLRHSSPNFGAIPSSTNVGSNTY-NH2 (disulfide 2-7; N-terminus assumed; SMILES CC[C@H](C)[C@H](NC(=O)[C@H](C)NC(=O)CNC(=O)[C@H](Cc1ccccc1)NC(=O)[C@H](CC(N)=O)NC(=O)[C@@H]1CCCN1C(=O)[C@H](CO)NC(=O)[C@H](CO)NC(=O)[C@H](Cc1c[nH]cn1)NC(=O)[C@H](CCCNC(=N)N)NC(=O)[C@H](CC(C)C)NC(=O)[C@H](Cc1ccccc1)NC(=O)[C@H](CC(N)=O)NC(=O)[C@H](C)NC(=O)[C@H](CC(C)C)NC(=O)[C@H](CCCNC(=N)N)NC(=O)[C@H](CCC(N)=O)NC(=O)[C@@H](NC(=O)[C@H](C)NC(=O)[C@@H]1CSSC[C@H](NC(=O)[C@@H](N)CCCCNC(=O)CC[C@H](NC(=O)CCCCCCCCCCCCCCCCCCC(=O)O)C(=O)O)C(=O)N[C@@H](CC(N)=O)C(=O)N[C@@H]([C@@H](C)O)C(=O)N[C@@H](C)C(=O)N[C@@H]([C@@H](C)O)C(=O)N1)[C@@H](C)O)C(=O)N1CCC[C@H]1C(=O)N[C@@H](CO)C(=O)N[C@@H](CO)C(=O)N[C@H](C(=O)N[C@@H](CC(N)=O)C(=O)N[C@H](C(=O)NCC(=O)N[C@@H](CO)C(=O)N[C@@H](CC(N)=O)C(=O)N[C@H](C(=O)N[C@@H](Cc1ccc(O)cc1)C(N)=O)[C@@H](C)O)C(C)C)[C@@H](C)O, also called compound 48) [N^ε1-[(4S)-4-carboxy-4-(19-carboxynonadecanoylamino)butanoyl]-[Arg17,Pro21,Pro27]-h-amylin]"
